Test results taken from doi:10.1101/2021.07.22.453398.
Like-named read-outs stand apart in the source and are kept apart here.

Columns and labels:
[1] = molecular target: bison NHA2ΔN (structural construct, tag removed by TEV) (Bison bison); assay: cryo-EM structure
[2] = molecular target: bison NHA2ΔN (structural construct, tag removed by TEV) (Bison bison); assay: cryo-EM structure; remark: listed apart in the source

- stoichiometry N [1]: 2
- stoichiometry N [2]: 2
Substance: bison NHA2ΔN (structural construct, tag removed by TEV) (domain or fragment)
